Values quoted from earlier work in patent US7235522B2, “Use of microparticles having a protein and an antibody adsorbed thereon for preparing a pharmaceutical composition for intranasal administration” (priority 1997, dated 2007).

Settings: in vivo

## insulin [insulin (51 AA)]
  absorption of proteins administered by nasal route: almost zero
